Common to all, as to test: Kinase profiling (radiometric filter-binding)
Assay type in all cases: biochemical

Series [1] has as its target T1, ASK1 (Homo sapiens, UniProt Q99683).
T1 sequence (Q99683 1-1374): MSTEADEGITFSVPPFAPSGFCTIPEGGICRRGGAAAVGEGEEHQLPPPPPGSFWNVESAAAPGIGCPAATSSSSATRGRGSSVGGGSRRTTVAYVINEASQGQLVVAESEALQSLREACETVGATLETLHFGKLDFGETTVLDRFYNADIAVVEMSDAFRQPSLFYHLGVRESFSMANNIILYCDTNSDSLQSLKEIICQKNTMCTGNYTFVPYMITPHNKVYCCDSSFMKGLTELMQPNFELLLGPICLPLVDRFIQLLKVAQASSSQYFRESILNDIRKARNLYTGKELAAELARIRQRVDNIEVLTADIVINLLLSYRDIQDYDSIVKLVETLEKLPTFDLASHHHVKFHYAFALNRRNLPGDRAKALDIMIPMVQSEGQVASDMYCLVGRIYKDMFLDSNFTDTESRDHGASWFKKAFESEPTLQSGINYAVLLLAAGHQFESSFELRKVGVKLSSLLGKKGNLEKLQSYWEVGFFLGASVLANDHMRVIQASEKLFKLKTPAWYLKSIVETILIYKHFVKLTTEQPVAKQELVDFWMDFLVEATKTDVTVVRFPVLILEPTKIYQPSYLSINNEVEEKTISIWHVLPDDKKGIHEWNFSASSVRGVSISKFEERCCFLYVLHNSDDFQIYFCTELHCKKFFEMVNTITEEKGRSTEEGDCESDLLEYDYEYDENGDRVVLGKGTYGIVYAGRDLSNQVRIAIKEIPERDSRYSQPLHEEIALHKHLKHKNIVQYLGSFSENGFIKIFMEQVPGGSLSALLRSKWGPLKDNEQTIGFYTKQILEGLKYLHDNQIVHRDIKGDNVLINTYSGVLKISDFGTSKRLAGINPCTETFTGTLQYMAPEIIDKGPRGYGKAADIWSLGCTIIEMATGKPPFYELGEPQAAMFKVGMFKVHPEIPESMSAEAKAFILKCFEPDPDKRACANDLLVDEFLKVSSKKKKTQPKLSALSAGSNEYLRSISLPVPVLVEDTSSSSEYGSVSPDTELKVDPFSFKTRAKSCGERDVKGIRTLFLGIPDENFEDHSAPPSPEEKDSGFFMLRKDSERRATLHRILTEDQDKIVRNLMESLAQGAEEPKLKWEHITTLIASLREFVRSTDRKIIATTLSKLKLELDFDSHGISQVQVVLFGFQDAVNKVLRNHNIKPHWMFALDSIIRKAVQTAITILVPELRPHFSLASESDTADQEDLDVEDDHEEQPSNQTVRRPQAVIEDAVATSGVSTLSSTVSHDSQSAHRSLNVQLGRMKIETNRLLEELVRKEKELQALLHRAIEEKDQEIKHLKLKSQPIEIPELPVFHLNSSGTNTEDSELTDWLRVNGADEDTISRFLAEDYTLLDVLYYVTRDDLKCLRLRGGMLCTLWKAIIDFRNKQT
The conditions noted are these: ASK1, 1 µM inhibitor; read-out: Residual activity, %. As to the method: (§1) Kinase selectivity profiling was performed using the commercial service provided by the MRC PPU International Centre for Kinase Profiling (Dundee, UK) using a radiometric filter-binding assay. Kinases used for analysis were of human origin. The ATP concentration applied for inhibition measurements was at or below the ATP KM value of the particular PK. ARC-3125 and ARC-3126 were screened against 139 PKs, whereas compounds 1, 2, and 8 were screened against 140 PKs. The final total concentration of inhibitors in the selectivity panel was 1 µM. Residual activities were expressed as the percentage of retained activity compared to the control without inhibitor.

Series [2] addresses EPH-A2 (Homo sapiens, UniProt P29317). Particulars: EPH-A2, 1 µM inhibitor; read-out: Residual activity, %. As to the method: as §1
Series [3] deals with ERK1 (Homo sapiens, UniProt P27361). Particulars: ERK1, 1 µM inhibitor; read-out: Residual activity, %. As to the method: as §1
Series [4] concerns the target HIPK3 (Homo sapiens, UniProt Q9H422). The conditions noted are these: HIPK3, 1 µM inhibitor; read-out: Residual activity, %. As to the method: as §1
Series [5] has as its target IR (Homo sapiens, UniProt P06213). The conditions noted are these: 1 µM inhibitor, read-out: Residual activity, %. As to the method: as §1
For series [6], the target named is MARK3 (Homo sapiens, UniProt P27448). Particulars: MARK3, 1 µM inhibitor; read-out: Residual activity, %. As to the method: as §1
The target in series [7] is MINK1 (Homo sapiens, UniProt Q8N4C8). The conditions noted are these: MINK1, 1 µM inhibitor; read-out: Residual activity, %. How it is done: as §1
Series [8] has as its target MSK1 (Homo sapiens, UniProt O75582). The conditions noted are these: MSK1, 1 µM inhibitor; read-out: Residual activity, %. As to the method: as §1
Series [9] deals with PAK5 (Homo sapiens, UniProt Q9P286). Particulars: PAK5, 1 µM inhibitor; read-out: Residual activity, %. How it is done:
as §1

For series [10], the target named is TIE2 (Homo sapiens, UniProt Q02763). Particulars: TIE2, 1 µM inhibitor; read-out: Residual activity, %. How it is done: as §1
Series [11] addresses p38 MAPK (Homo sapiens, UniProt Q15759). Particulars: second of four lines (Greek letter lost), 1 µM inhibitor, read-out: Residual activity, %. As to the method: as §1

Square brackets hold non-standard residues; d marks the D form. Peptide text beside a SMILES is read from it. * marks the point of attachment. X3 = O=C(CCCCCNCc1nc2c(sc3cc(Br)cnc32)c(=O)[nH]1)*

TIE2, sequence (Q02763 23-1124): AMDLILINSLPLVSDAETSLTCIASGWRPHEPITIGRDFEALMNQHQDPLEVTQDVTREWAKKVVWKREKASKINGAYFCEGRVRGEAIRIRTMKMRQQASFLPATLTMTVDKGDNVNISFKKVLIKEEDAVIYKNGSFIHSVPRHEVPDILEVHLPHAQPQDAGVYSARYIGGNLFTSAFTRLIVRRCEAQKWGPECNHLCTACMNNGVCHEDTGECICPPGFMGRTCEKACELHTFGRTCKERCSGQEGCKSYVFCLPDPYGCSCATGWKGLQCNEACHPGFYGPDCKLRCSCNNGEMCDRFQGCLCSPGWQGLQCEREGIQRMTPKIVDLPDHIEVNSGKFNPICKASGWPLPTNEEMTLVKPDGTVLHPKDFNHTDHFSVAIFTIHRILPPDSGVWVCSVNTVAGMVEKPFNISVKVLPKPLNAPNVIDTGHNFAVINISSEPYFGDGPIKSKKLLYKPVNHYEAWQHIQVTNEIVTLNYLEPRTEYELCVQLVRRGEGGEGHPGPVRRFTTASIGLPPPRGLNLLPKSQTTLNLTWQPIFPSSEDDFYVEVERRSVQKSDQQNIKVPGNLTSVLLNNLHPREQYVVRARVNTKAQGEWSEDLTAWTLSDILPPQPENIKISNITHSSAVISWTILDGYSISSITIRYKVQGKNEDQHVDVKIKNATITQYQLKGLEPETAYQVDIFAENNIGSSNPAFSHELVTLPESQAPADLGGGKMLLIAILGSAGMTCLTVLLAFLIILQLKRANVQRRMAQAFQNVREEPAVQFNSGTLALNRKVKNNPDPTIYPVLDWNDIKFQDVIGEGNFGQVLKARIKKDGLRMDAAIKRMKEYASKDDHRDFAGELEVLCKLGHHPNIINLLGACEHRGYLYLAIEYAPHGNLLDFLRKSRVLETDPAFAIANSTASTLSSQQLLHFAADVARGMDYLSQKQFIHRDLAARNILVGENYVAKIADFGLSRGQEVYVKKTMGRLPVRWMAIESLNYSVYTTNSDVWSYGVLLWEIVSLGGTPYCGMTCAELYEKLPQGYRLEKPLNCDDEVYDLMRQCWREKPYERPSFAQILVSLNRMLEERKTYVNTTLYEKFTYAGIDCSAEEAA
ERK1, sequence (P27361 whole entry): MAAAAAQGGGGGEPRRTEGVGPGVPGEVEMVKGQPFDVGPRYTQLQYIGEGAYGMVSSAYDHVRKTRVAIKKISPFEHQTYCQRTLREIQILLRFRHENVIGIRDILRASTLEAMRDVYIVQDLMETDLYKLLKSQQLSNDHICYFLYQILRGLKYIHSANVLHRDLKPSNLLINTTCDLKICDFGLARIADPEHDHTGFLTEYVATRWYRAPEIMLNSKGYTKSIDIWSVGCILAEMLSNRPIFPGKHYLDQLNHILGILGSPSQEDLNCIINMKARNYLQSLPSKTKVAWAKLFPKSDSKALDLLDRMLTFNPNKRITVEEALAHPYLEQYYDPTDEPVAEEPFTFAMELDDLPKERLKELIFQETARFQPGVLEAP
MARK3, sequence (P27448 whole entry): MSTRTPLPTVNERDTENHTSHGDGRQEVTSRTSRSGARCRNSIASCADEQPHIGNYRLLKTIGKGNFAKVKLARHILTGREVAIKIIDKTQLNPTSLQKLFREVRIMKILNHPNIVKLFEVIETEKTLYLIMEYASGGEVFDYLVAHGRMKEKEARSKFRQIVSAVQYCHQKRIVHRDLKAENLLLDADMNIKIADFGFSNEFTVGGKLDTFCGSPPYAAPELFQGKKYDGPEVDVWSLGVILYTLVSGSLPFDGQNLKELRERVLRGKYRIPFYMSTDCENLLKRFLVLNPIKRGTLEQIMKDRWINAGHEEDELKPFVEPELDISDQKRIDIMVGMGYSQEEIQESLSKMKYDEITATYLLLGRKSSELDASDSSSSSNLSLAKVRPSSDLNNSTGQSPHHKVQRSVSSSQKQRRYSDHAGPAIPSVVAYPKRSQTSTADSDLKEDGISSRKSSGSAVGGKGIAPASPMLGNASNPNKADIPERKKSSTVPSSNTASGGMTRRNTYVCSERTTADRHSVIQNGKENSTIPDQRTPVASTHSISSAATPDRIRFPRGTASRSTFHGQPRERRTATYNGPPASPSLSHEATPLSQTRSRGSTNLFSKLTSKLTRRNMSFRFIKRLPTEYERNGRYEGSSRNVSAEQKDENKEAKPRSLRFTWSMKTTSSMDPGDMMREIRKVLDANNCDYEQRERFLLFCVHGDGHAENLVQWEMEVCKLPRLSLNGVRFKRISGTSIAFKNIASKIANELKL
PAK5, sequence (Q9P286 whole entry): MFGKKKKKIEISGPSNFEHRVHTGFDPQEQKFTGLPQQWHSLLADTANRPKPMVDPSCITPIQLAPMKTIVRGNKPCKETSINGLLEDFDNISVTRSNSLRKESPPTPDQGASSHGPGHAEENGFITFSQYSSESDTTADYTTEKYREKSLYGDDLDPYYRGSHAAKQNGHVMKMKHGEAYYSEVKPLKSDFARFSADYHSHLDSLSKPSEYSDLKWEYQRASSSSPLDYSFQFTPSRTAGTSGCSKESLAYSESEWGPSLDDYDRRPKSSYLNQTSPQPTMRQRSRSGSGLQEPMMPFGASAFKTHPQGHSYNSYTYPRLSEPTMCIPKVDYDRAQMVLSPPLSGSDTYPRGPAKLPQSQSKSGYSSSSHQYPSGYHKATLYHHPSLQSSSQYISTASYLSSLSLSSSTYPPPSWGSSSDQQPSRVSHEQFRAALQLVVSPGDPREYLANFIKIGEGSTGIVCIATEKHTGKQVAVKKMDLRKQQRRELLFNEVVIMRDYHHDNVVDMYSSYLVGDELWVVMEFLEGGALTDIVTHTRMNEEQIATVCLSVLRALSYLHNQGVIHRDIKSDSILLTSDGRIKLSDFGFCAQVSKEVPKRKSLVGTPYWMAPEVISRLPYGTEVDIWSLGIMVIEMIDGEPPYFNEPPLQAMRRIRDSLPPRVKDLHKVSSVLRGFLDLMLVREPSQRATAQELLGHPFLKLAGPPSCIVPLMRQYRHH
MSK1, sequence (O75582 whole entry): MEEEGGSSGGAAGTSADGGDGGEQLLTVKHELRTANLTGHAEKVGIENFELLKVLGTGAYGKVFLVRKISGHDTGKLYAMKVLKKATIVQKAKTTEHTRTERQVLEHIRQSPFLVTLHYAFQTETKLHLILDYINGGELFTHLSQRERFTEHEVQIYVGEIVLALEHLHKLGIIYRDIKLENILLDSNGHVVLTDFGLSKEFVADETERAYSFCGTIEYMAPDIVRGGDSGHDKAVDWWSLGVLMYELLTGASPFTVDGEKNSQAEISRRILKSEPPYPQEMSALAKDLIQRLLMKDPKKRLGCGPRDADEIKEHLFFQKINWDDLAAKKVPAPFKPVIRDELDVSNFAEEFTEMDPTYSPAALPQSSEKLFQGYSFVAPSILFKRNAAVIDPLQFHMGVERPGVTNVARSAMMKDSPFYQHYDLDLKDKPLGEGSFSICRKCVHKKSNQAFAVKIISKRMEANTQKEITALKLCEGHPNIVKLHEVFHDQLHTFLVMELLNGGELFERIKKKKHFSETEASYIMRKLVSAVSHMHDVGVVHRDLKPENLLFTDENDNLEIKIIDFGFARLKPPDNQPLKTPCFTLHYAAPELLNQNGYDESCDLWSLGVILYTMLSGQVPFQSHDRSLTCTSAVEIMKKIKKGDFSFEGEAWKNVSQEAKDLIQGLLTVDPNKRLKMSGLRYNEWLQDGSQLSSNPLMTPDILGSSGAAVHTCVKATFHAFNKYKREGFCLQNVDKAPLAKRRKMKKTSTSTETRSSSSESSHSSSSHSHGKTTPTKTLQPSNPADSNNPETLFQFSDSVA
p38 MAPK, sequence (Q15759 whole entry): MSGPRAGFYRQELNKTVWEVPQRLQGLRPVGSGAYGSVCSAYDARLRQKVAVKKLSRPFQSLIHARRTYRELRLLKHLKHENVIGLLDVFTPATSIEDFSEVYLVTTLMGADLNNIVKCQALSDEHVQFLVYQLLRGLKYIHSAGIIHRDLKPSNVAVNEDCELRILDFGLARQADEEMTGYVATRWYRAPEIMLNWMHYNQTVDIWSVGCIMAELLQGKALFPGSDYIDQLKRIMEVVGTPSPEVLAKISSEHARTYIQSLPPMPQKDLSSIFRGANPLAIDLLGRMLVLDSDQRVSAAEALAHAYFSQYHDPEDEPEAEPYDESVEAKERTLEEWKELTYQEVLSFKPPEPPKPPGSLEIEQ
EPH-A2, sequence (P29317 24-976): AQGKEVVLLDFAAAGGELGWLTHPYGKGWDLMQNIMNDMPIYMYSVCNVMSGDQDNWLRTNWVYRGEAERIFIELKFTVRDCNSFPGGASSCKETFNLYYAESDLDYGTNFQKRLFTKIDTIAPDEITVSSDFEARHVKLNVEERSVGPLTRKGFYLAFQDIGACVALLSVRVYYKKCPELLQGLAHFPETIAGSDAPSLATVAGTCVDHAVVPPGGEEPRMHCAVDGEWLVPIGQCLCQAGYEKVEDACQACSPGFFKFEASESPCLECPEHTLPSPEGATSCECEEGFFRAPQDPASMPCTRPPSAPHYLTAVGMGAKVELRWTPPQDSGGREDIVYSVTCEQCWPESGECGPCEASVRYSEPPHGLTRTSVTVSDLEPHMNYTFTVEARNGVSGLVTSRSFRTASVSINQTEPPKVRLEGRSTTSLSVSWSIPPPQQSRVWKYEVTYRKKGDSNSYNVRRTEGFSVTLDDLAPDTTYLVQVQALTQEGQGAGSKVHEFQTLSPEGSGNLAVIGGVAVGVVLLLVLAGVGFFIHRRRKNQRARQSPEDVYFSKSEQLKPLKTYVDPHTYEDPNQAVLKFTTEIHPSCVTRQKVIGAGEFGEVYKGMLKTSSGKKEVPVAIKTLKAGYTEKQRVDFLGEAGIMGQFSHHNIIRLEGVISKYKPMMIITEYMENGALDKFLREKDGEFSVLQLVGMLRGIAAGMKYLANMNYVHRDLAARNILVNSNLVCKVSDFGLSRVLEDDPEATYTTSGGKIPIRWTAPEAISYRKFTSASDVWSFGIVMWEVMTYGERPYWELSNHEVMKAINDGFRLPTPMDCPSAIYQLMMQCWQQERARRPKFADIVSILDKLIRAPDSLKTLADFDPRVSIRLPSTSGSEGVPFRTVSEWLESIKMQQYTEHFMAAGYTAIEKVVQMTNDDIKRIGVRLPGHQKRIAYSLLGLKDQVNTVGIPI

Turning to `N=C(N)NCCC[C@@H](NC(=O)CCCCCNC(=O)Cn1cnc2c(I)c(I)c(I)c(I)c21)C(=O)N[C@H](CCCNC(=N)N)C(=O)N[C@H](CCCNC(=N)N)C(=O)N[C@H](CCCNC(=N)N)C(=O)N[C@H](CCCNC(=N)N)C(=O)N[C@H](CCCNC(=N)N)C(=O)N[C@H](CCCCN)C(N)=O` [ARC-3125, TIBI-CH2-C(=O)-Ahx-(D-Arg)6-D-Lys-NH2], the remaining activity at 1 µM amounted to 93% in series [1]; 108 ± 2% in series [2]; 89 ± 7% in [3]; 21% in [4]; 22 ± 6% in series [5]; 72 ± 1% in series [6]. For the same molecule, the remaining activity at 1 µM worked out at 86 ± 1% in series [7]; 6 ± 8% in series [8]; 25 ± 6% in [9]; 104 ± 9% in series [10]; 80 ± 6% in series [11].

For `N=C(N)NCCC[C@@H](NC(=O)CCCCCNCc1nc2c(sc3cc(Br)cnc32)c(=O)[nH]1)C(=O)N[C@H](CCCNC(=N)N)C(=O)N[C@H](CCCNC(=N)N)C(=O)N[C@H](CCCNC(=N)N)C(=O)N[C@H](CCCNC(=N)N)C(=O)N[C@H](CCCNC(=N)N)C(=O)N[C@H](CCCCN)C(N)=O` [ARC-3126, BPTP-Ahx-(D-Arg)6-D-Lys-NH2] (X3-[dR][dR][dR][dR][dR][dR][dK]-NH2), the remaining activity at 1 µM in series [1] was 121 ± 11%; in series [2], 113 ± 13%; in [3], 84 ± 7%; in series [4], 93 ± 2%; in series [5], 117 ± 6%; in series [6] it was 112 ± 17%. The remaining activity at 1 µM in series [7] stood at 104 ± 16%; in series [8], 29 ± 1%; in series [9], 89 ± 2%; in [10], 106%; in series [11] it was 94 ± 4%.

As for `N=C(N)NCCC[C@@H](NC(=O)CNC(=O)[C@@H](CCCNC(=N)N)NC(=O)[C@@H](CCCNC(=N)N)NC(=O)CCCCCCCNCc1nc2c(sc3cc(Br)cnc32)c(=O)[nH]1)C(=O)N[C@H](CCCCN)C(N)=O` [Compound 1, BPTP-Aoc-(D-Arg)2-Gly-D-Arg-D-Lys-NH2], the remaining activity at 1 µM is 99% in series [1]; 116 ± 5% in series [2]; 119 ± 16% in [3]; 116 ± 15% in series [4]; 122 ± 7% in series [5]; 100 ± 6% in series [6]. The remaining activity at 1 µM in series [7] turned out to be 129 ± 2%; in [8], 106 ± 13%; in [9] it was 112 ± 3%; in series [10], 110 ± 6%; in series [11], 108 ± 14%.

With `N=C(N)NCCC[C@@H](NC(=O)CNC(=O)[C@@H](CCCNC(=N)N)NC(=O)[C@@H](CCCNC(=N)N)NC(=O)CCCCCCCNCc1nc2c(sc3ccc(Br)cc32)c(=O)[nH]1)C(=O)N[C@H](CCCCN)C(N)=O` [Compound 2, BBTP-Aoc-(D-Arg)2-Gly-D-Arg-D-Lys-NH2], the remaining activity at 1 µM came out at 102 ± 5% in series [1]; 113 ± 10% in series [2]; 125 ± 6% in series [3]; 72 ± 12% in series [4]; 139 ± 35% in series [5]; 102 ± 7% in [6]. Also, the remaining activity at 1 µM came to 106 ± 13% in series [7]; 53 ± 4% in series [8]; 100 ± 2% in series [9]; 109 ± 9% in series [10]; 113 ± 4% in series [11].

For `N=C(N)NCCC[C@@H](NC(=O)CNC(=O)[C@@H](CCCNC(=N)N)NC(=O)[C@@H](CCCNC(=N)N)NC(=O)Cn1cc(CNCc2nc3c(sc4ccc(Br)cc43)c(=O)[nH]2)nn1)C(=O)N[C@H](CCCCN)C(N)=O` [Compound 3, BBTP-Amt-(D-Arg)2-Gly-D-Arg-D-Lys-NH2], the remaining activity at 1 µM in series [1] was found to be 101 ± 2%; in [2], 132 ± 6%; in [3], 107 ± 6%; in [4], 57 ± 7%; in [5], 113 ± 23%; in series [6] it was 100 ± 8%. For the same molecule, the remaining activity at 1 µM in [7] is 133 ± 14%; in [8] it was 90 ± 2%; in series [9] it was 92 ± 5%; in series [10] it was 103 ± 12%; in series [11] it was 100 ± 6%.

Values taken from article PMC8307404, “Crystal Structure-Guided Design of Bisubstrate Inhibitors and Photoluminescent Probes for Protein Kinases of the PIM Family” (Molecules, 2021).
